Source: IntAct's records for PubMed 19234114

B1: Ferroportin (Mus musculus), Q9JHI9 (parent)
chain: MTKARDQTHQEGCCGSLANYLTSAKFLLYLGHSLSTWGDRMWHFAVSVFLVELYGNSLLLTAVYGLVVAGSVLVLGAIIGDWVDKNARLKVAQTSLVVQNVSVILCGIILMMVFLHKNELLTMYHGWVLTVCYILIITIANIANLASTATAITIQRDWIVVVAGENRSRLADMNATIRRIDQLTNILAPMAVGQIMTFGSPVIGCGFISGWNLVSMCVEYFLLWKVYQKTPALAVKAALKVEESELKQLTSPKDTEPKPLEGTHLMGEKDSNIRELECEQEPTCASQMAEPFRTFRDGWVSYYNQPVFLAGMGLAFLYMTVLGFDCITTGYAYTQGLSGSILSILMGASAITGIMGTVAFTWLRRKCGLVRTGLFSGLAQLSCLILCVISVFMPGSPLDLSVSPFEDIRSRFVNVEPVSPTTKIPETVFTTEMHMSNMSNVHEMSTKPIPIVSVSLLFAGVIAARIGLWSFDLTVTQLLQENVIESERGIINGVQNSMNYLLDLLHFIMVILAPNPEAFGLLVLISVSFVAMGHLMYFRFAQKTLGNQIFVCGPDEKEVTDENQPNTSVV

Variants of: B1
Conditions: with jak2_human JAK2, O60674
jak2_human JAK2, O60674, sequence (O60674 whole entry): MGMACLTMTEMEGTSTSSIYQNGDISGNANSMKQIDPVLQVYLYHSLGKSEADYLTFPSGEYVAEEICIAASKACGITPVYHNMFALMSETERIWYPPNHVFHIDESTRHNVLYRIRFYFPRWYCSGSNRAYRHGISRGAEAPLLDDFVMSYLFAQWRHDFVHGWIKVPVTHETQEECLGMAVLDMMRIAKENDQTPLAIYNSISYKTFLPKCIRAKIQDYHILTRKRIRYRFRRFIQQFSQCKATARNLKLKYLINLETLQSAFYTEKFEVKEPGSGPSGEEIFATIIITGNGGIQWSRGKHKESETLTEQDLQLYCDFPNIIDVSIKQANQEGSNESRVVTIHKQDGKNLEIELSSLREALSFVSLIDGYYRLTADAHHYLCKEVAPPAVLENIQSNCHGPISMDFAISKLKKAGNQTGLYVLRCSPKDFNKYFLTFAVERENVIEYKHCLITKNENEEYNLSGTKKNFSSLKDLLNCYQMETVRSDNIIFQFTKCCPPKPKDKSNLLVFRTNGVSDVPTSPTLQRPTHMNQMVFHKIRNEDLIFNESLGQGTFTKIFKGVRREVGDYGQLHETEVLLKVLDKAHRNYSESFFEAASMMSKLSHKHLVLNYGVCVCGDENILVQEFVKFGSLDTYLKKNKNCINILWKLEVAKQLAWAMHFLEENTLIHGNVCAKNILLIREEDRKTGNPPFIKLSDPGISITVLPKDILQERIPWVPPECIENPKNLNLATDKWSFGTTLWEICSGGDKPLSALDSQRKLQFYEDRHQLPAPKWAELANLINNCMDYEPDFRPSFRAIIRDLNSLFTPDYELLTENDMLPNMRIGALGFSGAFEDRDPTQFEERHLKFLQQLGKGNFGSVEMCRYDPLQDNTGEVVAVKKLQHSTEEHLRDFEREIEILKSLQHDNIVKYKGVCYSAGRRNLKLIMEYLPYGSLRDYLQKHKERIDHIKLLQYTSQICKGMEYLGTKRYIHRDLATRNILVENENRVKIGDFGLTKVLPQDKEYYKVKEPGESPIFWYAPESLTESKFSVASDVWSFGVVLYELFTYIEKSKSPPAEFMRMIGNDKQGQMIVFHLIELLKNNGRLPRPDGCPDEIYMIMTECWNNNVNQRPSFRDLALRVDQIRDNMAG

effect of a mutation on the interaction	Variant
disrupting interaction	C326Y
